# Results as given in patent publication US20220143148A1, “COMPOSITIONS AND METHODS FOR MODULATING CGRP SIGNALING TO REGULATE INTESTINAL INNATE LYMPHOID CELLS” (The Broad Institute, Inc., priority 2019, published 2022).
# Tested on: small intestinal immune cells
# Experiment: Droplet-based scRNA-seq of small intestinal immune cells (LP and PP), OVA vs PBS, clustering and differential expression
# Format: in vivo, mouse
# Conditions: cluster ID 6, PP, OVA vs PBS
# Source text: To comprehensively characterize small intestinal immune cells, Applicants generated scRNA-Seq profiles for 58,067 immune cells collected from lamina propria (LP) and Peyer's patch (PP) regions at steady state and after induction of a type 2 inflammatory reaction to ovalbumin (OVA) (Brandt et al., 2003) (FIGS. 1A and 8A). To ensure sufficient representation of rare cells, Applicants combined a normalization strategy—removing by flow sorting either a portion of IgD+ naïve B cells, which are the most abundant cell type in PPs, or all CD19+ and CD3+ T cells (FIG. 8B, Methods)—with profiling of a sufficiently large number of cells number (P>0.99 to recover at least 15 cells from each cluster, Methods) by massively parallel scRNA-seq (Haber et al., 2017) (Methods). Applicants obtained 36,797 and 21,270 high quality cells passing initial filtering (Methods) from PP and LP regions, respectively.
# Overall, Applicants annotated 27 cell subsets across the two compartments, spanning T cells, B cells, ILCs, dendritic cells (DCs), myeloid cells and stromal cells, in frequencies ranging from 0.07% to 14%. Briefly, Applicants first partitioned the cells from the PP regions by unsupervised clustering (Methods) into 46 clusters, retained the 97% of cells that were robustly assigned cell identities in each cluster (Methods), assigned the cells from the LP regions to the 46 clusters using a classifier (Methods), and visualized the data with scvis (Ding et al., 2018), a deep generative model-based method (FIGS. 1B and 8C, Methods). Next, Applicants identified genes that were differentially expressed between the cells in each cluster and the remaining cells (Table 1, Methods), as well as between pairs of clusters (Table 2), to elucidate identities of similar cell types/states. Applicants excluded from downstream analysis clusters mostly consisting of contaminants from epithelium, likely doublets, or cells with a small number of Unique Molecular Identifiers (UMIs) (FIGS. 1C and 8D), or lacking distinct markers (Methods). Altogether, Applicants retained 27 clusters spanning 85% of the cells and each associated with distinct marker genes (FIG. 8E, Methods).
# To induce allergic reaction to OVA, 6 to 7 weeks old mice were sensitized twice, two weeks apart, with 50 μg of OVA plus 1 mg of aluminum potassium sulfate adjuvant via intraperitoneal injection. Two weeks later, mice were orally administered with 50 mg of OVA on every other day for a total of five times. 1 μg of α-CGRP peptide was administered simultaneously when indicated. Mice were deprived of food for 3-4 hours in cages with wood chip bedding for limiting antigen degradation in the stomach before each intragastric challenge.
# Isolation of cells from Peyer's patches (PPs). Peyer's patches (PPs) were carefully dissected from the small intestine under a stereo microscope using a fine scissor, pierced once with a fine forcep. Tissues were digested in freshly made digestion buffer (RPMI-1640 containing 100 μg/ml Liberase™ and 50 μg/ml DNase I at 37° C. on a roto-mixer. After 15 min, tissues were very gently mixed using a 1 ml pipette. The supernatant was collected and added to ice-cold MACS buffer (pH 7.4; PBS plus 2% FCS and 2 mM EDTA). Pre-warmed (37° C.) fresh digestion buffer was added to the remaining tissues. After rotation at 37° C. for 15 min, the mixture was vigorously mixed using a 1 ml pipette for 1 min. Supernatants from the two steps were combined and passed through 70 μm filters and stained for FACS (below).
# Isolation of cells from the lamina propria (LP). The small intestines were opened longitudinally and washed in ice-cold PBS. For scRNA-seq, roughly 0.5 cm of fragments from each of the distal, middle and proximal regions without visible PPs were collected. Epithelial cells were dissociated by tissue rotation in pre-warmed (37° C.) PBS containing 10 mM EDTA at 37° C. for 15 min, followed by additional incubation on ice for 15 min. Tissues were then shaken vigorously. […]
molecule,measurement,value
"OVA (protein, UniProt P01012 2-386, looked up) Ovalbumin: GSIGAASMEFCFDVFKELKVHHANENIFYCPIAIMSALAMVYLGAKDSTRTQINKVVRFDKLPGFGDSIEAQCGTSVNVHSSLRDILNQITKPNDVYSFSLASRLYAEERYPILPEYLQCVKELYRGGLEPINFQTAADQARELINSWVESQTNGIIRNVLQPSSVDSQTAMVLVNAIVFKGLWEKAFKDEDTQAMPFRVTEQESKPVQMMYQIGLFRVASMASEKMKILELPFASGTMSMLVLLPDEVSGLEQLESIINFEKLTEWTSSNVMEERKIKVYLPRMKMEEKYNLTSVLMAMGITDVFSSSANLSGISSAESLKISQAVHAAHAEINEAGREVVGSAEAGVDAASVSEEFRADHPFLFCIKHIATNAVLFFGRCVSP",Dnajc7: LN (average fold change),0.197
same,Dusp1: LN (average fold change),−0.366
same,Dusp5: LN (average fold change),−0.167
same,Dusp18: LN (average fold change),−0.789
same,Egr1: LN (average fold change),−0.987
same,Emp3: LN (average fold change),0.172
same,Erdr1: LN (average fold change),−0.520
same,Fabp2: LN (average fold change),−1.495
same,Fam46c: LN (average fold change),−0.440
same,Filip1l: LN (average fold change),−0.295
same,Fkbp5: LN (average fold change),0.573
same,Fosb: LN (average fold change),−0.556
same,Fosl2: LN (average fold change),−0.387
same,Foxp1: LN (average fold change),−0.169
same,Fyn: LN (average fold change),−0.230
same,Gapdh: LN (average fold change),0.206
same,Gapt: LN (average fold change),−0.204
same,Gnb1: LN (average fold change),−0.247
same,Grasp: LN (average fold change),−0.617
same,Gtf2i: LN (average fold change),0.283
same,H2-Aa: LN (average fold change),0.220
same,H2-Ab1: LN (average fold change),0.238
same,H2-Eb1: LN (average fold change),0.228
same,H2afj: LN (average fold change),0.166
same,Hes6: LN (average fold change),0.290
same,Hist1h1c: LN (average fold change),0.792
same,Hist2h4: LN (average fold change),1.036
same,Ier2: LN (average fold change),−0.265
same,Ier5: LN (average fold change),0.332
same,Ifi30: LN (average fold change),0.256
same,Ifrd1: LN (average fold change),−0.459
same,Igha: LN (average fold change),0.596
same,Igkc: LN (average fold change),0.194
same,Itpkb: LN (average fold change),−0.230
same,Jun: LN (average fold change),0.499
same,Junb: LN (average fold change),−0.174
same,Jund: LN (average fold change),−0.422
same,Kdm6b: LN (average fold change),−0.488
same,Klf4: LN (average fold change),−0.763
same,Klk1: LN (average fold change),0.243
same,Kmt2e: LN (average fold change),−0.156
same,Lag3: LN (average fold change),0.315
same,Lgals1: LN (average fold change),0.174
same,Lmnb1: LN (average fold change),−0.415
same,Ly6c1: LN (average fold change),−0.173
same,Lyz1: LN (average fold change),−1.858
same,Mcl1: LN (average fold change),−0.199
same,Mcpt1: LN (average fold change),0.479
same,Mcpt2: LN (average fold change),0.749
same,Mir142hg: LN (average fold change),−0.649
same,Mpeg1: LN (average fold change),0.185
same,Napsa: LN (average fold change),0.245
same,Neat1: LN (average fold change),0.364
same,Nfkbia: LN (average fold change),−0.191
same,Nfkbiz: LN (average fold change),−0.288
same,Npc2: LN (average fold change),0.166
same,Nr4a1: LN (average fold change),−0.422
same,Nr4a3: LN (average fold change),−0.556
same,Odc1: LN (average fold change),−0.325
same,Os9: LN (average fold change),0.265
same,Pik3ip1: LN (average fold change),0.445
same,Pim1: LN (average fold change),−0.188
same,Plek: LN (average fold change),−0.205
same,Plekho2: LN (average fold change),−0.406
same,Pltp: LN (average fold change),0.260
same,Pnrc1: LN (average fold change),−0.212
same,Ppia: LN (average fold change),0.186
same,Ppp1r16b: LN (average fold change),−0.419
same,Ppp2ca: LN (average fold change),−0.356
same,Psap: LN (average fold change),0.202
same,Ptp4a1: LN (average fold change),−0.201
same,Ptpre: LN (average fold change),−0.452
same,Rel: LN (average fold change),−0.305
same,Rgs1: LN (average fold change),0.548
